{"source": "patent US20250263482A1", "target": "human CLDN18.2 expressed on cells (human)", "test": "cell-based or functional assay", "data": [{"binder": "reference mAb (IMAB362, Ganymed) (antibody, INN chains, looked up, V domains shown) VH: QVQLQQPGAELVRPGASVKLSCKASGYTFTSYWINWVKQRPGQGLEWIGNIYPSDSYTNYNQKFKDKATLTVDKSSSTAYMQLSSPTSEDSAVYYCTRSWRGNSFDYWGQGTTLTVSS VL: DIVMTQSPSSLTVTAGEKVTMSCKSSQSLLNSGNQKNYLTWYQQKPGQPPKLLIYWASTRESGVPDRFTGSGSGTDFTLTISSVQAEDLAVYYCQNDYSYPFTFGSGTKLEIKR", "values": [{"measurement": "ADCC on KATOIII CLDN18.2 cells, LDH: EC50 (nM), run A", "value": 0.12, "unit": "nM"}, {"measurement": "ADCC on KATOIII CLDN18.2 cells, LDH: EC50 (nM), run B", "value": 0.22, "unit": "nM"}, {"measurement": "ADCC on KATOIII CLDN18.2 cells, LDH: EC50 (nM), run C", "value": 0.27, "unit": "nM"}, {"measurement": "ADCC on KATOIII CLDN18.2 cells, LDH: max (% cytotoxity), run A", "value": 27.9, "unit": "%"}, {"measurement": "ADCC on KATOIII CLDN18.2 cells, LDH: max (% cytotoxity), run B", "value": 24.5, "unit": "%"}, {"measurement": "ADCC on KATOIII CLDN18.2 cells, LDH: max (% cytotoxity), run C", "value": 24.5, "unit": "%"}, {"measurement": "ADCC on NCI-N87 CLDN18.2 cells, LDH: EC50 (nM), run A", "value": 0.057, "unit": "nM"}, {"measurement": "ADCC on NCI-N87 CLDN18.2 cells, LDH: EC50 (nM), run B", "value": 0.082, "unit": "nM"}, {"measurement": "ADCC on NCI-N87 CLDN18.2 cells, LDH: EC50 (nM), run C", "value": 0.1, "unit": "nM"}, {"measurement": "ADCC on NCI-N87 CLDN18.2 cells, LDH: max (% cytotoxity), run A", "value": 26.1, "unit": "%"}, {"measurement": "ADCC on NCI-N87 CLDN18.2 cells, LDH: max (% cytotoxity), run B", "value": 22.1, "unit": "%"}, {"measurement": "ADCC on NCI-N87 CLDN18.2 cells, LDH: max (% cytotoxity), run C", "value": 21.1, "unit": "%"}, {"measurement": "CDC on CT26 CLDN18.2 cells, LDH: EC50 (nM), run A", "value": 11.5, "unit": "nM"}, {"measurement": "CDC on CT26 CLDN18.2 cells, LDH: EC50 (nM), run B", "value": 10.7, "unit": "nM"}, {"measurement": "CDC on CT26 CLDN18.2 cells, LDH: EC50 (nM), run C", "value": 11.9, "unit": "nM"}, {"measurement": "CDC on CT26 CLDN18.2 cells, LDH: max (% cytotoxity), run A", "value": 72.5, "unit": "%"}, {"measurement": "CDC on CT26 CLDN18.2 cells, LDH: max (% cytotoxity), run B", "value": 54.7, "unit": "%"}, {"measurement": "CDC on CT26 CLDN18.2 cells, LDH: max (% cytotoxity), run C", "value": 51.6, "unit": "%"}, {"measurement": "CDC on KATOIII CLDN18.2 cells, LDH: EC50 (nM), run A", "value": 38.1, "unit": "nM"}, {"measurement": "CDC on KATOIII CLDN18.2 cells, LDH: EC50 (nM), run B", "value": 22.7, "unit": "nM"}, {"measurement": "CDC on KATOIII CLDN18.2 cells, LDH: EC50 (nM), run C", "value": 27.5, "unit": "nM"}, {"measurement": "CDC on KATOIII CLDN18.2 cells, LDH: max (% cytotoxity), run A", "value": 29.7, "unit": "%"}, {"measurement": "CDC on KATOIII CLDN18.2 cells, LDH: max (% cytotoxity), run B", "value": 46, "unit": "%"}, {"measurement": "CDC on KATOIII CLDN18.2 cells, LDH: max (% cytotoxity), run C", "value": 34.9, "unit": "%"}]}]}
